Data from US20130156786A1.

Columns and labels:
[1] = molecular target: human α2β1 integrin on human platelets (human) (UniProt P17301); experiment: FACS of human blood platelets, secondary antibody only, without primary antibody (negative control)
[2] = molecular target: macaca fascicularis α2β1 integrin on platelets (macaca fascicularis); experiment: FACS of macaca blood platelets, secondary antibody only, without primary antibody (negative control)

Sequence of human α2β1 integrin on human platelets (human) (P17301 30-1181 limits assumed, chain 1 of 2): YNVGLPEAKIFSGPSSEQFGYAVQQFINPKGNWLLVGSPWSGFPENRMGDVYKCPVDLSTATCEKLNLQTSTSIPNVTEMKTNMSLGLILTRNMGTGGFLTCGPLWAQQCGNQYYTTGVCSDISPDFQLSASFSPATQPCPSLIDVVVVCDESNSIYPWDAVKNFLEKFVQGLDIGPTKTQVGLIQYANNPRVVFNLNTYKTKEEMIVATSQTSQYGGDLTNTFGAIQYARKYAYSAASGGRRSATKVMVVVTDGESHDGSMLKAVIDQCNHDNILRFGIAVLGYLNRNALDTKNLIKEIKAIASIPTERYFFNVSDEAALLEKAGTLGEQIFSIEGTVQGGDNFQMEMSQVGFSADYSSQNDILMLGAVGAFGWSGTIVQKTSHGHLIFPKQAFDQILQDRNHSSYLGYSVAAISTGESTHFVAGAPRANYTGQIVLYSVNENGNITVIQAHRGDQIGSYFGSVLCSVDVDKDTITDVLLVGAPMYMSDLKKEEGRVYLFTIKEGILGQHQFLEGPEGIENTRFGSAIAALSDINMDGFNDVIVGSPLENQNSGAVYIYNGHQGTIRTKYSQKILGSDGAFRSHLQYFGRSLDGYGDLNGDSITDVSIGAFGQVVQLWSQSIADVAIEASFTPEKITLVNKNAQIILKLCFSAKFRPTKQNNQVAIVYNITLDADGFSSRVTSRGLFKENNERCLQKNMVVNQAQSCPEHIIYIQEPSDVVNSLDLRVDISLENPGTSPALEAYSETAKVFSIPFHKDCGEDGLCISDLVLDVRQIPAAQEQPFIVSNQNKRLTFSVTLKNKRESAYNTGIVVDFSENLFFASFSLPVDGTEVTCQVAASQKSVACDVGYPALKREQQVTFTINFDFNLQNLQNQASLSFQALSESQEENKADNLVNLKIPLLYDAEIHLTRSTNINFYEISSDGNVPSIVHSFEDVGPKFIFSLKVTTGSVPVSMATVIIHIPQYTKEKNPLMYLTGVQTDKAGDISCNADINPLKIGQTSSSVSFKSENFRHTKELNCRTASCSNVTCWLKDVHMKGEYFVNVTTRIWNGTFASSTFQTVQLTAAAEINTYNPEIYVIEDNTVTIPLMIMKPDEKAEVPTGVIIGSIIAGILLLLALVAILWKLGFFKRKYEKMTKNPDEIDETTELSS
Sequence of human α2β1 integrin on human platelets (human) (chain, as listed by the source limits assumed, chain 2 of 2): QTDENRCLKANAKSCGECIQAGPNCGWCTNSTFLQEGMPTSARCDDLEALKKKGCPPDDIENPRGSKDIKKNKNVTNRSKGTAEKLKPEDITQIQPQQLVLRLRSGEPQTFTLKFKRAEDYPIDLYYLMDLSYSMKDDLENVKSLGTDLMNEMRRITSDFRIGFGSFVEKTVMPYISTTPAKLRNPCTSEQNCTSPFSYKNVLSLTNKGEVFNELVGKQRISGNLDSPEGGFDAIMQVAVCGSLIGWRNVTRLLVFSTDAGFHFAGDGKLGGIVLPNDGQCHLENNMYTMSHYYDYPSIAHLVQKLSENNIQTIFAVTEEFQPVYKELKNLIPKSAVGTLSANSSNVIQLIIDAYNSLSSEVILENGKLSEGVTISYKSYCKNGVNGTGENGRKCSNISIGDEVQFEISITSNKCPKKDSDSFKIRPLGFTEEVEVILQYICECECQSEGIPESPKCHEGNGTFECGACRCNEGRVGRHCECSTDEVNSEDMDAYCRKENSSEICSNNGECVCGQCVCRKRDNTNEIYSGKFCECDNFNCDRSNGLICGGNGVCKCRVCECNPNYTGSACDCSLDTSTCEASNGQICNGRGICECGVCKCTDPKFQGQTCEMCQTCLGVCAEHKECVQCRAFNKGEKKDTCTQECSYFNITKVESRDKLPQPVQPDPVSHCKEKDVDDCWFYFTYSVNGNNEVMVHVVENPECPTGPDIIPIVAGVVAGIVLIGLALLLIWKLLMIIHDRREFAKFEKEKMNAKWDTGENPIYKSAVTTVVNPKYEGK

For anti mouse-IgG-PE (antibody), the % positives [1] was 0.5% and the % positives [2] was 0.6%.
